The results in this text go back to patent publication US5804412.

For assay [1], the target named is endogenous EGFR of CV-1 cells (monkey (endogenous EGFR of CV-1 monkey kidney cells)). The experiment in a line: Scatchard analysis of 125I-EGF binding to SNX1 transfected CV-1 cells.
Assay [2] has the same target. The experiment in a line: Scatchard analysis of 125I-EGF binding to vector transfected control CV-1 cells.
The target in assay [3] is EGFR core tyrosine kinase domain (residues 663-958) fused to LexA (human) (UniProt P00533). The experiment in a line: yeast two hybrid, LexA-EGFR bait and SNX1-B42 prey, galactose against dextrose control.
For assay [4], the target named is endogenous EGFR of CV-1 cells (monkey (endogenous EGFR of CV-1 monkey kidney cells)).

Usually Kd stands for the free concentration of one partner at which half of the binding sites on the other are occupied at equilibrium, for simple one-to-one binding. Take 125I-EGF (ligand): the values for the dissociation constant (Kd) in assay [1] and in assay [2] were 1.34 nM and 0.73 nM, respectively. “carboxy terminal 58 amino acids of SNX1 fused to the B42 acid patch transcriptional activation domain” had an induction of β-gal activity in response to galactose induction in assay [3] of 400 x. “human SNX1 (sorting nexin 1), full length” yielded an EGFR half life (35S-methionine pulse chase, immunoprecipitation) in assay [4] of 2 h.
